Laboratory results: patent publication US20160264649A1

Assays:
Assay in all cases: cell-based or functional assay
[1] = target: HIV-1 Env of isolate MGRM-F1-022 (subtype F) (HIV-1)
[2] = target: HIV-1 Env of pseudovirus isolate MGRM-G-011 (subtype G) (HIV-1)
[3] = target: HIV-1 Env of isolate MGRM-F1-013 (subtype F) (HIV-1)
[4] = target: HIV-1 Env of pseudovirus isolate MGRM-G-006 (subtype G) (HIV-1)
[5] = target: HIV-1 Env of isolate MGRM-D-013 (subtype D) (HIV-1)
[6] = target: HIV-1 Env of pseudovirus isolate MGRM-G-001 (subtype G) (HIV-1)
[7] = target: HIV-1 Env of isolate MGRM-D-001 (subtype D) (HIV-1)
[8] = target: HIV-1 Env of isolate MGRM-F1-010 (subtype F) (HIV-1)
[9] = target: HIV-1 Env of isolate MGRM-D-016 (subtype D) (HIV-1)
[10] = target: HIV-1 Env of isolate MGRM-D-024 (subtype D) (HIV-1)
[11] = target: HIV-1 Env of isolate MGRM-D-029 (subtype D) (HIV-1)
[12] = target: HIV-1 Env of isolate 92UG001 (subtype D) (HIV-1)
[13] = target: HIV-1 Env of pseudovirus isolate MGRM-G-009 (subtype G) (HIV-1)
[14] = target: HIV-1 Env of isolate MGRM-D-003 (subtype D) (HIV-1)
[15] = target: HIV-1 Env of isolate MGRM-D-014 (subtype D) (HIV-1)
[16] = target: HIV-1 Env of pseudovirus isolate MGRM-G-015 (subtype G) (HIV-1)
[17] = target: HIV-1 Env of isolate 98CN009 (subtype CRF07_BC) (HIV-1)
[18] = target: envelope of aMLV pseudovirus (negative control)
[19] = target: HIV-1 Env of isolate MGRM-F1-023 (subtype F) (HIV-1)
[20] = target: HIV-1 Env of isolate MGRM-D-021 (subtype D) (HIV-1)
[21] = target: HIV-1 Env of isolate MGRM-F1-020 (subtype F) (HIV-1)
[22] = target: HIV-1 Env of isolate MGRM-D-002 (subtype D) (HIV-1)
[23] = target: HIV-1 Env of pseudovirus isolate MGRM-G-025 (subtype G) (HIV-1)
[24] = target: HIV-1 Env of pseudovirus isolate MGRM-G-014 (subtype G) (HIV-1)
[25] = target: HIV-1 Env of isolate MGRM-D-020 (subtype D) (HIV-1)
[26] = target: HIV-1 Env of isolate MGRM-F1-016 (subtype F) (HIV-1)
[27] = target: HIV-1 Env of pseudovirus isolate MGRM-G-013 (subtype G) (HIV-1)
[28] = target: HIV-1 Env of isolate 92UG005 (subtype D) (HIV-1)
[29] = target: HIV-1 Env of isolate MGRM-F1-014 (subtype F) (HIV-1)
[30] = target: HIV-1 Env of pseudovirus isolate MGRM-G-004 (subtype G) (HIV-1)
[31] = target: HIV-1 Env of isolate MGRM-D-004 (subtype D) (HIV-1)
[32] = target: HIV-1 Env of pseudovirus isolate MGRM-G-028 (subtype G) (HIV-1)
[33] = target: HIV-1 Env of isolate MGRM-F1-021 (subtype F) (HIV-1)
[34] = target: HIV-1 Env of isolate 92UG114 (subtype D) (HIV-1)
[35] = target: HIV-1 Env of isolate MGRM-F1-018 (subtype F) (HIV-1)
[36] = target: HIV-1 Env of isolate MGRM-F1-008 (subtype F) (HIV-1)
[37] = target: HIV-1 Env of isolate MGRM-F1-015 (subtype F) (HIV-1)
[38] = target: HIV-1 Env of isolate 92UG024 (subtype D) (HIV-1)
[39] = target: HIV-1 Env of isolate 92UG046 (subtype D) (HIV-1)
[40] = target: HIV-1 Env of pseudovirus isolate MGRM-G-027 (subtype G) (HIV-1)
[41] = target: HIV-1 Env of isolate MGRM-D-011 (subtype D) (HIV-1)
[42] = target: HIV-1 Env of isolate 98CN006 (subtype CRF08_BC) (HIV-1)
[43] = target: HIV-1 Env of isolate MGRM-D-019 (subtype D) (HIV-1)
[44] = target: HIV-1 Env of isolate MGRM-F1-006 (subtype F) (HIV-1)
[45] = target: HIV-1 Env of pseudovirus isolate MGRM-G-024 (subtype G) (HIV-1)
[46] = target: HIV-1 Env of isolate MGRM-D-005 (subtype D) (HIV-1)
[47] = target: HIV-1 Env of isolate MGRM-D-022 (subtype D) (HIV-1)
[48] = target: HIV-1 Env of pseudovirus isolate MGRM-G-019 (subtype G) (HIV-1)
[49] = target: HIV-1 Env of isolate MGRM-D-026 (subtype D) (HIV-1)
[50] = target: HIV-1 Env of isolate MGRM-D-008 (subtype D) (HIV-1)
[51] = target: HIV-1 Env of isolate MGRM-D-028 (subtype D) (HIV-1)
[52] = target: HIV-1 Env of pseudovirus isolate MGRM-G-017 (subtype G) (HIV-1)
[53] = target: HIV-1 Env of isolate MGRM-D-012 (subtype D) (HIV-1)
[54] = target: HIV-1 Env of pseudovirus isolate MGRM-G-016 (subtype G) (HIV-1)
[55] = target: HIV-1 Env of isolate MGRM-D-018 (subtype D) (HIV-1)
[56] = target: HIV-1 Env of isolate MGRM-F1-004 (subtype F) (HIV-1)
[57] = target: HIV-1 Env of isolate MGRM-F1-017 (subtype F) (HIV-1)
[58] = target: HIV-1 Env of isolate MGRM-F1-012 (subtype F) (HIV-1)

B1: PGT-125 (antibody, V domains shown)
VH: QSQLQESGPRLVEASETLSLTCNVSGESTGACTYFWGWVRQAPGKGLEWIGSLSHCQSFWGSGWTFHNPSLKSRLTISLDTPKNQVFLKLTSLTAADTATYYCARFDGEVLVYNHWPKPAWVDLWGRGIPVTVSS
VL: QSALTQPPSASGSPGQSITISCNGTATNFVSWYQQFPDKAPKLIIFGVDKRPPGVPDRFSGSRSGTTASLTVSRLQTDDEAVYYCGSLVGNWDVIFGGGTTLTVL
[1]
  IC50 (neutralization): > 50 µg/mL
[2]
  IC50: > 50 µg/mL
[3]
  IC50 (neutralization): > 50 µg/mL
[4]
  IC50: > 50 µg/mL
[5]
  IC50 (neutralization): > 50 µg/mL
[6]
  IC50: 0.033 µg/mL
[7]
  IC50 (neutralization): 2.84 µg/mL
[8]
  IC50 (neutralization): > 50 µg/mL
[9]
  IC50 (neutralization): > 50 µg/mL
[10]
  IC50 (neutralization): > 50 µg/mL
[11]
  IC50 (neutralization): > 50 µg/mL
[12]
  IC50 (neutralization): > 50 µg/mL
[13]
  IC50: > 50 µg/mL
[14]
  IC50 (neutralization): 0.065 µg/mL
[15]
  IC50 (neutralization): 0.12 µg/mL
[16]
  IC50: > 50 µg/mL
[17]
  IC50 (neutralization): 0.03 µg/mL
[18]
  IC50: > 50 µg/mL
[19]
  IC50 (neutralization): 0.012 µg/mL
[20]
  IC50 (neutralization): 0.04 µg/mL
[21]
  IC50 (neutralization): > 50 µg/mL
[22]
  IC50 (neutralization): 0.118 µg/mL
[23]
  IC50: > 50 µg/mL
[24]
  IC50: 0.007 µg/mL
[25]
  IC50 (neutralization): 0.015 µg/mL
[26]
  IC50 (neutralization): > 50 µg/mL
[27]
  IC50: > 50 µg/mL
[28]
  IC50 (neutralization): > 50 µg/mL
[29]
  IC50 (neutralization): > 50 µg/mL
[30]
  IC50: > 50 µg/mL
[31]
  IC50 (neutralization): 0.371 µg/mL
[32]
  IC50: 0.012 µg/mL
[33]
  IC50 (neutralization): > 50 µg/mL
[34]
  IC50 (neutralization): 0.349 µg/mL
[35]
  IC50 (neutralization): > 50 µg/mL
[36]
  IC50 (neutralization): > 50 µg/mL
[37]
  IC50 (neutralization): > 50 µg/mL
[38]
  IC50 (neutralization): > 50 µg/mL
[39]
  IC50 (neutralization): > 50 µg/mL
[40]
  IC50: 34.4 µg/mL
[41]
  IC50 (neutralization): 0.008 µg/mL
[42]
  IC50 (neutralization): 0.201 µg/mL
[43]
  IC50 (neutralization): > 50 µg/mL
[44]
  IC50 (neutralization): 0.361 µg/mL
[45]
  IC50: > 50 µg/mL
[46]
  IC50 (neutralization): > 50 µg/mL
[47]
  IC50 (neutralization): > 50 µg/mL
[48]
  IC50: > 50 µg/mL
[49]
  IC50 (neutralization): > 50 µg/mL
[50]
  IC50 (neutralization): > 50 µg/mL
[51]
  IC50 (neutralization): > 50 µg/mL
[52]
  IC50: > 50 µg/mL
[53]
  IC50 (neutralization): > 50 µg/mL
[54]
  IC50: > 50 µg/mL
[55]
  IC50 (neutralization): 0.049 µg/mL
[56]
  IC50 (neutralization): 0.035 µg/mL
[57]
  IC50 (neutralization): > 50 µg/mL
[58]
  IC50 (neutralization): > 50 µg/mL

B2: PGT-123 (antibody, V domains shown)
VH: QLHLQESGPGLVKPPETLSLTCSVSGASINDAYWSWIRQSPGKRPEWVGYVHHSGDTNYNPSLKRRVTFSLDTAKNEVSLKLVDLTAADSATYFCARALHGKRIYGIVALGELFTYFYMDVWGKGTAVTVSS
VL: SSMSVSPGETAKISCGKESIGSRAVQWYQQKPGQPPSLIIYNNQDRPAGVPERFSASPDFRPGTTATLTITNVDAEDEADYYCHIYDARGGTNWVFDRGTTLTVL
[1]
  IC50 (neutralization): 0.075 µg/mL
[2]
  IC50: 14.9 µg/mL
[3]
  IC50 (neutralization): 0.08 µg/mL
[4]
  IC50: > 50 µg/mL
[5]
  IC50 (neutralization): > 50 µg/mL
[6]
  IC50: 0.009 µg/mL
[7]
  IC50 (neutralization): 0.147 µg/mL
[8]
  IC50 (neutralization): 0.016 µg/mL
[9]
  IC50 (neutralization): > 50 µg/mL
[10]
  IC50 (neutralization): 0.023 µg/mL
[11]
  IC50 (neutralization): > 50 µg/mL
[12]
  IC50 (neutralization): > 50 µg/mL
[13]
  IC50: 33.5 µg/mL
[14]
  IC50 (neutralization): 3.74 µg/mL
[15]
  IC50 (neutralization): 0.009 µg/mL
[16]
  IC50: > 50 µg/mL
[17]
  IC50 (neutralization): 0.007 µg/mL
[18]
  IC50: > 50 µg/mL
[19]
  IC50 (neutralization): 0.053 µg/mL
[20]
  IC50 (neutralization): 11.1 µg/mL
[21]
  IC50 (neutralization): 0.051 µg/mL
[22]
  IC50 (neutralization): 0.012 µg/mL
[23]
  IC50: 0.046 µg/mL
[24]
  IC50: 0.005 µg/mL
[25]
  IC50 (neutralization): 0.018 µg/mL
[26]
  IC50 (neutralization): 4.95 µg/mL
[27]
  IC50: 3.97 µg/mL
[28]
  IC50 (neutralization): 9.79 µg/mL
[29]
  IC50 (neutralization): 0.111 µg/mL
[30]
  IC50: 0.181 µg/mL
[31]
  IC50 (neutralization): > 50 µg/mL
[32]
  IC50: 0.008 µg/mL
[33]
  IC50 (neutralization): 0.307 µg/mL
[34]
  IC50 (neutralization): 0.005 µg/mL
[35]
  IC50 (neutralization): 0.054 µg/mL
[36]
  IC50 (neutralization): > 50 µg/mL
[37]
  IC50 (neutralization): > 50 µg/mL
[38]
  IC50 (neutralization): > 50 µg/mL
[39]
  IC50 (neutralization): > 50 µg/mL
[40]
  IC50: 0.182 µg/mL
[41]
  IC50 (neutralization): 0.012 µg/mL
[42]
  IC50 (neutralization): 0.008 µg/mL
[43]
  IC50 (neutralization): > 50 µg/mL
[44]
  IC50 (neutralization): 6.89 µg/mL
[45]
  IC50: 0.032 µg/mL
[46]
  IC50 (neutralization): > 50 µg/mL
[47]
  IC50 (neutralization): > 50 µg/mL
[48]
  IC50: 0.008 µg/mL
[49]
  IC50 (neutralization): > 50 µg/mL
[50]
  IC50 (neutralization): > 50 µg/mL
[51]
  IC50 (neutralization): 0.132 µg/mL
[52]
  IC50: 0.026 µg/mL
[53]
  IC50 (neutralization): > 50 µg/mL
[54]
  IC50: > 50 µg/mL
[55]
  IC50 (neutralization): 0.007 µg/mL
[56]
  IC50 (neutralization): 1.78 µg/mL
[57]
  IC50 (neutralization): > 50 µg/mL
[58]
  IC50 (neutralization): 22.2 µg/mL
